Six molecules from paper PMC6656775, “Soluble and membrane-bound protein carrier mediate direct copper transport to the ethylene receptor family” (Scientific Reports, 2019) can be followed below.

B1: NterRAN1 (amino acids 1–298), purified recombinant (domain or fragment, A. thaliana, UniProt Q9S7J8 1-298, looked up)
chain: MAPSRRDLQLTPVTGGSSSQISDMEEVGLLDSYHNEANADDILTKIEEGRDVSGLRKIQVGVTGMTCAACSNSVEAALMNVNGVFKASVALLQNRADVVFDPNLVKEEDIKEAIEDAGFEAEILAEEQTQATLVGQFTIGGMTCAACVNSVEGILRDLPGVKRAVVALSTSLGEVEYDPNVINKDDIVNAIEDAGFEGSLVQSNQQDKLVLRVDGILNELDAQVLEGILTRLNGVRQFRLDRISGELEVVFDPEVVSSRSLVDGIEEDGFGKFKLRVMSPYERLSSKDTGEASNMFRR
modifications: AlexaFluor488-NHS label
notes: RAN1 (HMA7), Arabidopsis thaliana, cytosolic N-terminal region, amino acids 1-298; source: E. coli BL21 (DE3) or C43 (DE3), pETEV16b, purified (HisTrap, TEV, Superdex200)
B4: ETR1^1–157, purified recombinant (domain or fragment, A. thaliana, UniProt P49333 1-157, looked up)
chain: MEVCNCIEPQWPADELLMKYQYISDFFIAIAYFSIPLELIYFVKKSAVFPYRWVLVQFGAFIVLCGATHLINLWTFTTHSRTVALVMTTAKVLTAVVSCATALMLVHIIPDLLSVKTRELFLKNKAAELDREMGLIRTQEETGRHVRMLTHEIRSTL
notes: In detergent (FosCholine-16); also called purified ETR1
B6: ETR1^306–738, purified recombinant (domain or fragment, A. thaliana, UniProt P49333 306-738, looked up)
chain: ALSHAAILEESMRARDLLMEQNVALDLARREAETAIRARNDFLAVMNHEMRTPMHAIIALSSLLQETELTPEQRLMVETILKSSNLLATLMNDVLDLSRLEDGSLQLELGTFNLHTLFREVLNLIKPIAVVKKLPITLNLAPDLPEFVVGDEKRLMQIILNIVGNAVKFSKQGSISVTALVTKSDTRAADFFVVPTGSHFYLRVKVKDSGAGINPQDIPKIFTKFAQTQSLATRSSGGSGLGLAISKRFVNLMEGNIWIESDGLGKGCTAIFDVKLGISERSNESKQSGIPKVPAIPRHSNFTGLKVLVMDENGVSRMVTKGLLVHLGCEVTTVSSNEECLRVVSHEHKVVFMDVCMPGVENYQIALRIHEKFTKQRHQRPLLVALSGNTDKSTKEKCMSFGLDGVLLKPVSLDNIRDVLSDLLEPRVLYEGM
notes: also called extra-membranous part of ETR1; soluble extra-membranous part of the receptor

Experiment [1] concerns the target B6. Put plainly: MST; AlexaFluor488-labelled RAN1, CterRAN1, NterRAN1, ATX1, CCH or CCHΔ (50 nM) in buffer D (50 mM Tris, 250 mM NaCl, 0.015% FosCholine16, 2.5 mM DTT, 20% glycerol, pH 8.5); ETR1^306–738 titrated 37 µM to 1.1 nM; triplicates. The note with it: both partners purified.
The target in experiment [2] is T1, RAN1, full-length, purified recombinant (A. thaliana, UniProt Q9S7J8 1-1001, AlexaFluor488-NHS label).
T1 construct: P1B-type copper ATPase RAN1 (HMA7), Arabidopsis thaliana, full-length; also called full-length RAN1; HMA7; source: E. coli BL21 (DE3) or C43 (DE3), pETEV16b, solubilised with DDM, purified (HisTrap, TEV, Superdex200)
T1 sequence (looked up): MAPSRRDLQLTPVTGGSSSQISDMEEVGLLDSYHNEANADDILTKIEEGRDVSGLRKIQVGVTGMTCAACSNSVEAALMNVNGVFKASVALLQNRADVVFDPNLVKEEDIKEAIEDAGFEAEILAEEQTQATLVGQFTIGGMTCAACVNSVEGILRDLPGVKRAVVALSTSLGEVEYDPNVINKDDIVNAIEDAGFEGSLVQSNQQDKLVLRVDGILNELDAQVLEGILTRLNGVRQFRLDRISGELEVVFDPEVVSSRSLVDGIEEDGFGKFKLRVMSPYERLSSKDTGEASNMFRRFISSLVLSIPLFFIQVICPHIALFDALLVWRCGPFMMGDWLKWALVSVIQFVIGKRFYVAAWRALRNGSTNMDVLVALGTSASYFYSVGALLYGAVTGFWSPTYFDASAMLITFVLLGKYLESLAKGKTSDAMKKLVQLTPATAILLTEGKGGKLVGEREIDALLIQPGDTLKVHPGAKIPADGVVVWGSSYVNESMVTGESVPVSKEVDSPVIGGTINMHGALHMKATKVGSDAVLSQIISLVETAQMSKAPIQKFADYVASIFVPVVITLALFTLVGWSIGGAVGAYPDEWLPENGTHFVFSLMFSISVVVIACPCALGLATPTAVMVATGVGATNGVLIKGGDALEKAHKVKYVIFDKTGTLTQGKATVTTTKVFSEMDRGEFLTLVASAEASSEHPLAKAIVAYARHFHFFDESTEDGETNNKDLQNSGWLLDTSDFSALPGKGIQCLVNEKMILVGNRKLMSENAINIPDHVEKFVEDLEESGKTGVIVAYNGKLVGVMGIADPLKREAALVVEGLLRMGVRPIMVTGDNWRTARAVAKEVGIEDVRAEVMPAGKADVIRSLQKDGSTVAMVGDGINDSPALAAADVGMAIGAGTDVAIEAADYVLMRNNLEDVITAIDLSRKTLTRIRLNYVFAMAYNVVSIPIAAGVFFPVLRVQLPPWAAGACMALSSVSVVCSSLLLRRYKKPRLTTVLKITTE
Put plainly: MST; AlexaFluor488-labelled RAN1 or CterRAN1 (15 nM, 50 mM HEPES, 300 mM NaCl, 0.1% DDM, pH 7.5) or NterRAN1 (50 nM, same buffer without DDM, 0.05% Tween20); ATX1, CCH or CCHΔ titrated 30 µM to 0.9 nM; triplicates; apparent dissociation constants. Conditions: both partners purified.

Experiment [3] has as its target B4. Put plainly: MST; AlexaFluor488-labelled ATX1 (75 nM), CCH (100 nM) or CCHΔ (50 nM) in 50 mM HEPES, 300 mM NaCl, pH 7.5, 0.015% FosCholine-16, 0.05% Tween20; ETR1^1–157 titrated 7.5 µM to 0.2 nM; triplicates; apparent dissociation constants. Conditions: both partners purified.
Experiment [4] concerns the target T1, RAN1, full-length, purified recombinant. Put plainly: MST; AlexaFluor488-labelled RAN1 or CterRAN1 (20 nM, 50 mM HEPES, 300 mM NaCl, 0.1% DDM, pH 7.5) or NterRAN1 (40 nM, 0.05% Tween20); ETR1^1–157 titrated 10 µM to 0.3 nM in buffer with 0.015% FosCholine-16; triplicates. The note with it: both partners purified.
The target of experiment [5] is B1. Described as above. The note with it: both partners purified.
For experiment [6], the target named is CterRAN1 (amino acids 299–1001), purified recombinant (A. thaliana) (UniProt Q9S7J8). The experiment is described as above.
Experiment [7] deals with T2, CterRAN1 (amino acids 299–1001), purified recombinant (A. thaliana, UniProt Q9S7J8 299-1001, AlexaFluor488-NHS label).
T2 construct: RAN1 (HMA7), Arabidopsis thaliana, amino acids 299-1001 (transmembrane copper transport site); also called CterRAN1 mutant; source: E. coli BL21 (DE3) or C43 (DE3), pETEV16b, solubilised with DDM, purified (HisTrap, TEV, Superdex200)
T2 sequence (looked up): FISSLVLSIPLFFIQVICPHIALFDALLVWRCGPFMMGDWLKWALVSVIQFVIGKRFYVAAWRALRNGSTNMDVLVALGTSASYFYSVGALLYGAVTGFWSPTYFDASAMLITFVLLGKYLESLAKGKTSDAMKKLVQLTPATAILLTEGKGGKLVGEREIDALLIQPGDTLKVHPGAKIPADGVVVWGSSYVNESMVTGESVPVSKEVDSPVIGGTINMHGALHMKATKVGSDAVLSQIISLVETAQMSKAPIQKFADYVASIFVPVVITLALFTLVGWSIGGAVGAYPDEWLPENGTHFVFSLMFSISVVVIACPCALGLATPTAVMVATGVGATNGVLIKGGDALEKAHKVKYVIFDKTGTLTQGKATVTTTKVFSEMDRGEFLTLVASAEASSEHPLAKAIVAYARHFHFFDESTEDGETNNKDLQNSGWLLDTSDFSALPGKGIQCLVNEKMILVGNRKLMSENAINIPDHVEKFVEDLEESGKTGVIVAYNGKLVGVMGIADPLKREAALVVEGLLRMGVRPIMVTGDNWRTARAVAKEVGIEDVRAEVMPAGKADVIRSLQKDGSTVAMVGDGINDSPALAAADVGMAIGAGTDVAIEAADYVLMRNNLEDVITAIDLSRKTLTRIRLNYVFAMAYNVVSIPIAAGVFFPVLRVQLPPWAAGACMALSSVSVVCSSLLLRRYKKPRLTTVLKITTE
Put plainly: MST; AlexaFluor488-labelled RAN1, CterRAN1, NterRAN1, ATX1, CCH or CCHΔ (50 nM) in buffer D (50 mM Tris, 250 mM NaCl, 0.015% FosCholine16, 2.5 mM DTT, 20% glycerol, pH 8.5); ETR1^306–738 titrated 37 µM to 1.1 nM; triplicates. Conditions: both partners purified.

In experiment [8] the target is T1, RAN1, full-length, purified recombinant. Described as above. The note with it: both partners purified.

As for B1, the Kd in experiment [1] came to 3480 ± 315 nM.

B2: CCH, full-length, purified recombinant (natural protein, A. thaliana, UniProt O82089 1-121, looked up)
chain: MAQTVVLKVGMSCQGCVGAVNRVLGKMEGVESFDIDIKEQKVTVKGNVEPEAVFQTVSKTGKKTSYWPVEAEAEPKAEADPKVETVTETKTEAETKTEAKVDAKADVEPKAAEAETKPSQV
modifications: AlexaFluor488-NHS label where it was the labelled partner (with ETR1^1–157 and ETR1^306–738); unlabelled where titrated
notes: soluble copper chaperone CCH, Arabidopsis thaliana, full-length; Preloaded with Cu(I) in the copper transfer assay; also called CCH wildtype; full-length CCH; source: E. coli BL21 (DE3) or C43 (DE3), pETEV16b, purified (HisTrap, TEV, Superdex200)
For the molecule B2, the Kd in experiment [2] turned out to be 55 ± 13 nM; in experiment [3] it was 526 ± 101 nM.

B3: CCHΔ, deletion mutant of CCH lacking the C-terminal extension, purified recombinant (domain or fragment)
chain: MAQTVVLKVGMSCQGCVGAVNRVLGKMEGVESFDIDIKEQKVTVKGNVEPEAVFQTVSKTGKKTSYWPVEAEAEPK
modifications: AlexaFluor488-NHS label where it was the labelled partner (with ETR1^1–157 and ETR1^306–738); unlabelled where titrated
B3: the figures for the Kd in experiment [2] and in experiment [3] were 77 ± 24 nM and 376 ± 93 nM, respectively.
Regarding B4, the Kd in experiment [4] is 33 ± 8 nM; in experiment [5], 205 ± 35 nM; in experiment [6] it was 2610 nM.

B5: ATX1, purified recombinant (natural protein, A. thaliana, UniProt Q94BT9 1-76, looked up)
chain: MSQTVVLRVAMTCEGCVGAVKRVLGKMEGVESFDVDIKEQKVTVKGNVQPDAVLQTVTKTGKKTAFWEAEGETAKA
modifications: AlexaFluor488-NHS label where it was the labelled partner (with ETR1^1–157 and ETR1^306–738); unlabelled where titrated
notes: soluble copper chaperone ATX1, Arabidopsis thaliana; Preloaded with Cu(I) in the copper transfer assay; also called Cu(I)-ATX1; source: E. coli BL21 (DE3) or C43 (DE3), pETEV16b, purified (HisTrap, TEV, Superdex200)
For B5, the values for the Kd in experiment [2] and in experiment [3] were 41 ± 11 nM and 313 ± 74 nM, respectively.
As to B6, the values for the Kd in experiment [7] and in experiment [8] were 211 ± 38 nM and 71 ± 17 nM, respectively.
